“Also recorded” adds a separate entry of the source. Where two headings read alike, the source gives them in different places.
Legend:
hCCR5_1–31 [1] = test: Epitope mapping with truncated peptides by competitive ELISA; assay type: binding, human
Source text: (§1) The peptide encoding the N-terminal extracellular domain of human CCR5 ([…]-biotin, hCCR5_1–31) was synthesised by the Peptide Synthesis Laboratory, Cancer ResearchUK. The same peptide without the C-terminal cysteine biotin was synthesised by PeptideSynthetics (Fareham PO15 6DP). An analogue of the peptide with sulphated tyrosines at position 10 and 14 was synthesised as described previously and given as a gift by Prof. Fred Naider (City University of New York). The panel of truncated peptides used for epitope mapping (See Results, Subsection “Defining a linear epitope in the N-terminal domain of CCR5”) was synthesised by Sigma (Pepscreen). The chimeric peptide used for immunisation ([…]) was synthesised by the peptide synthesis facility at the University of Ghent. All peptides were >80% pure by HPLC and mass spectroscopy.
The pepscreen panel of CCR5 truncated peptides was screened by competitive ELISA. Antibody supernatant (typically diluted 1 in 1000 or 1 in 4000) was added to N-terminal domain peptide coated ELISA plates in the presence or absence of 1 μg/well of one of the competing peptides. The antibody peptide mixture was incubated overnight, washed and then bound antibody measured as described above.

[2] = tested on: hCCR5_1–31 N-terminal domain peptide; test: Affinity of RoAb13 for hCCR5_1–31 peptide by competitive (two-stage) ELISA; assay type: binding, human; conditions: abstract value
Source text: as §1
(§2) 96 well ELISA plates (Nunc) were coated with peptide conjugates (10 μg/ml unless otherwise stated) in coating buffer (0.1 M sodium bicarbonate, pH 8.5), overnight at 4°C. All wells were washed (washing buffer PBS 0.1% Tween-20) and blocked by addition of 2% low fat milk (Tesco) in PBS for at least 1 h at room temperature. […] Unconjugated avidin was used as control coating. […] Bound antibody was detected using alkaline phosphatase coupled rabbit anti-mouse IgG or IgGFab (Sigma) antibody (1:2000 dilution) and substrate (PNPP FAST, Sigma). […]

[3] = tested on: untransfected controls (CHO cells); test: Flow cytometry binding of antibodies to untransfected controls; design: species or system Chinese hamster; conditions: normalized to % maximum binding for each antibody
Source text: (§3) Chinese hamster ovary cells were transfected by electroporation with vectors expressing human or mouse CCR5 in an expression vector containing a neomycin resistance gene (Genecopoeia, #EX-Z0659-M02 and #EX-Mm01826-M02 respectively). G418 resistant cells were cloned by limit dilution and receptor expressing cells were identified by flow cytometry using RoAb13 anti-CCR5 and Rabbit anti-mouse FITC for human CCR5, and PE anti-Mouse CD195 (CCR5) (clone HM-CCR5, Insight Biotechnology) for mouse CCR5.
(§4) CHO cell transfectants (5 × 10^4) were incubated in 10% goat serum (Sigma) and 0.1% sodium azide for 30 min at 4°C. Purified antibodies or mouse sera at various dilutions were added, and incubated for 2–3 h at 4°C. Cells were washed and bound antibody detected using […] FITC or APC conjugates (R&D Systems). The number of bound antibody molecules was quantified in some experiments using Quikfit calibration beads containing known numbers of bound mouse IgG molecules as per manufacturers instructions (DAKO, #K0078).

hCCR5_1–31 [4] = test: ELISA binding of antibodies to the N-terminal CCR5 peptide; design: species or system human; conditions: peptide coupled to avidin, OD 405 nm
Source text: as §1, §2

[5] = tested on: cell surface CCR5 (expressed on CCR5 transfectants); test: Affinity of RoAb13 for cell surface CCR5 by flow cytometry (Scatchard plot); assay type: binding, human; conditions: abstract value, CCR5-transfected cells
Source text: as §3, §4

[6] = tested on: CCR5 on human peripheral blood subpopulations; test: Expression of CCR5 on human peripheral blood subsets as detected by RoAb13; assay type: binding; conditions: S2 Fig
Source text: Peripheral blood subpopulations were stained using purified RoAb13 Fab fragment directly conjugated with […] as per manufacturer’s instructions.

[7] = tested on: hCCR5_1–31 analogue with sulphated tyrosines at position 10 and 14; test: ELISA binding of RoAb13 to sulphated N-terminal CCR5 peptide; design: species or system human
Source text: as §1, §2

monocytes = test: Transwell migration assay, monocytes; assay type: cell-based, human; conditions: for migration of monocytes to macrophage conditioned medium: 3 h at 37°C, conditioned medium from resting and activated (LPS) macrophages
Method: Peripheral blood mononuclear cells and monocyte derived macrophages were prepared from peripheral blood as previously described. The study was approved by the joint University College London / University College London Hospitals NHS Trust Human Research Ethics Committee and written informed consent was obtained from all participants. […] Conditioned media from these cultures were then centrifuged at 10,000g for 5 minutes and stored at -80°C. Polycarbonate transwell inserts (Corning No. 3421, with […] and 6.5 mm diameter) were placed over 500 μL conditioned media or control media or media containing purified chemokines in 24-well plates. […] of freshly isolated PBMC (5x10^6 cells /mL) were loaded into the upper chamber of the transwell, and incubated for 3 hours at 37°C. Transwells were then lifted out of the lower chamber and the contents of the upper chamber were carefully aspirated. Each transwell filter was subsequently tilted to rinse the under surface twice with 200 μL 0.25% Trypsin-EDTA (Gibco) that was allowed to drain into the well (lower chamber). […] The lower chamber cell suspension was collected and fixed with 1% paraformaldehyde in phosphate buffered saline (PBS). […] A FACScalibur flow cytometer (Becton Dickinson) was used with FlowJo (version 9.4.3) analysis software. 10 000 beads were counted to standardised cell count quantitation in each sample and transmigration of cells in the lower chamber was expressed as the proportion of the input.

[8] = tested on: CHO-CCR5 transfected cells; conditions: ref [19]; cited from earlier work
Source text: The clear cut inhibitory effects of the antibody even ...

[9] = tested on: human peripheral blood leukocytes; test: Transwell migration assay, peripheral blood leukocytes; assay type: cell-based; conditions: responses to individual chemokines or inflammatory macrophage conditioned media
Method: (§5) Peripheral blood mononuclear cells and monocyte derived macrophages were prepared from peripheral blood as previously described. The study was approved by the joint University College London / University College London Hospitals NHS Trust Human Research Ethics Committee and written informed consent was obtained from all participants. […] Conditioned media from these cultures were then centrifuged at 10,000g for 5 minutes and stored at -80°C. Polycarbonate transwell inserts (Corning No. 3421, with […] and 6.5 mm diameter) were placed over 500 μL conditioned media or control media or media containing purified chemokines in 24-well plates. […] of freshly isolated PBMC (5x10^6 cells /mL) were loaded into the upper chamber of the transwell, and incubated for 3 hours at 37°C. Transwells were then lifted out of the lower chamber and the contents of the upper chamber were carefully aspirated. Each transwell filter was subsequently tilted to rinse the under surface twice with 200 μL 0.25% Trypsin-EDTA (Gibco) that was allowed to drain into the well (lower chamber). […] The lower chamber cell suspension was collected and fixed with 1% paraformaldehyde in phosphate buffered saline (PBS). […] 10 000 beads were counted to standardised cell count quantitation in each sample and transmigration of cells in the lower chamber was expressed as the proportion of the input.

[10] = tested on: human CCR5 (CHO cell transfectants); test: Flow cytometry binding of antibodies to CCR5-transfected CHO cells; conditions: indirect immunofluorescence
Source text: as §3, §4

HIV = conditions: cited from earlier work
mouse CCR5 = test: Flow cytometry binding of antibodies to CHO cells transfected with mouse CCR5; conditions: normalized to % maximum binding for each antibody
Source text: as §3, §4

lymphocytes = test: Transwell migration assay, lymphocytes; assay type: cell-based, human; conditions: 3 h, conditioned medium from resting and activated macrophages
Method: as §5

peptide spanning the whole of 5–25: peptide of the pepscreen panel spanning CCR5 residues 5–25 (VSSPIYDINYYTSEPCQKINV; UniProt P51681 5-25, looked up, fragment)
inhibition of R&D1801 binding to hCCR5_1–31 (hCCR5_1–31 [1]; competing peptide 1 μg/well, overnight, competitive ELISA): completely blocked

B1: RoAb13: mouse monoclonal anti-CCR5 antibody from hybridoma line number PZ3733 (Roche Palo Alto); EMBL LN832627 and LN832628 (antibody, V domains shown)
VH: EVQLQESGGGLVKPGGSLKLSCAASGFTFSTYAMSWVRQTPEKRLEWVASISTGDNTYYTDSVRGRFTISRDNARNILYLQMSSLRSEDTAMYFCTRGRGDRGDLFGYWGQGTLVTVSS
VL: DIVMSQSPSSLAVSVGEKVTMSCKSSQSLLYRGNQMNYLAWYQQKPGQSPKLLIYWASTRESGVPDRFTGSGSGTEFTLTISSVKAEDLTVYYCQQYYTYPRTFGGGTKLEIK
affinity for peptide [2]: 1.2e+07 M⁻¹ | binding to untransfected controls [3]: less than 5 % of maximum binding | recognition of the synthetic N-terminal peptide (hCCR5_1–31 [4]): recognised the synthetic peptide; also recorded: bound to both linear peptide and native forms of the epitope | affinity for cells [5]: 6e+08 M⁻¹ | detection of CCR5 on CD4, CD8 and NK cells [6]: detected CCR5 on a subpopulation of human peripheral CD4, CD8 and NK cells | detection of CCR5 on monocytes and B cells [6]: low levels of CCR5 expression | binding to sulphated vs non-sulphated peptide ([7]; peptide sulphated at tyrosines 10 and 14): bound more strongly (heteroclytic binding) to sulphated than non-sulphated forms of the peptide; also recorded: binding to peptide was significantly enhanced by the sulphation of target tyrosines | binding to sulphated vs non-sulphated peptide ([7]; peptide sulphated at tyrosines 10 and 14, listed as RoAb 13): binding to the peptide is enhanced by sulfation of tyrosines at positions 10 and 14 | migration in response to CCR5 binding chemokines (monocytes): blocks migration of monocytes in response to CCR5 binding chemokines; also recorded: ability to block chemokine induced monocyte migration; also recorded: inhibits migration induced by chemokines which bind CCR5 | migration of monocytes to macrophage conditioned medium (monocytes): blocks migration of monocytes; also recorded: inhibits monocyte chemotaxis | migration in response to CCL2 (monocytes; CCL2, S3 Fig): blocked migration | migration in response to CCL3 (monocytes; CCL3, S3 Fig): blocked migration | migration in response to CCL4 (monocytes; CCL4, S3 Fig): blocked migration | migration in response to CXCL12 (monocytes; CXCL12 (acts via CXCR4), S3 Fig): failed to block migration | block of binding of CCL3, 4 and CCL5 [8]: only partial ability to block binding of CCL3, 4 and CCL5 | block of chemokine induced calcium flux [8]: only partial ability | chemokine or conditioned media induced leukocyte migration [9]: effectively blocked chemokine induced migration of human peripheral blood leukocytes | binding to CCR5-expressing transfectants [10]: bound strongly to CCR5-expressing transfectants; also recorded: quite heterogenous | HIV blocking (HIV; previously shown): block HIV infection; also recorded: potent HIV blocking activity | inhibition of HIV infection (HIV; ref [19],[32]): potent inhibitor of HIV infection | inhibition of HIV infection (HIV; single round and spreading infection assays, ref [19]): inhibit HIV infection, in both single round and spreading infection assays | binding to CHO cells transfected with mouse CCR5 (mouse CCR5): less than 5 % of maximum binding | core epitope recognised (hCCR5_1–31 [1]; competitive ELISA with truncated peptides, defined by inhibition of binding by more than 50%): between aa8 (proline) and 13(asparagine)

B2: RoAb13 Fab fragment: Fab fragment of RoAb13 produced by papain digestion; PDB 4S2S (antibody, V domains shown)
VH: B1 VH
VL: B1 VL
migration of lymphocytes to macrophage conditioned medium (lymphocytes): not lymphocytes | migration of monocytes to macrophage conditioned medium (monocytes): significant difference from control (T test, p<0.05) | migration of monocytes to macrophage conditioned medium (monocytes; listed as Fab fragment of RoAb13): significantly inhibited the migration of monocytes

Source: PMC4451072, “A Linear Epitope in the N-Terminal Domain of CCR5 and Its Interaction with Antibody” (PLoS ONE, 2015)
